From patent US20140335077A1, “Compositions and Methods for the Treatment of Cancer Using IGF-IR Antagonists and MAPK/ERK Inhibitors” (priority 2013, published 2014) come the findings set out here.

Assay type in all cases: cell-based
Assay [1] concerns ZR75-1. Kind of assay: PrestoBlue cell viability, anti-IGF-1R antibody with U0126, ZR75-1 (breast carcinoma). The conditions noted are these: ZR75-1 cells, 48 h. Here is the method:
(§1) Cells were incubated in 96 well tissue culture plates and cell viability was measured by PrestoBlue cell viability assay (Invitrogen, CA, USA) according to manufacturer's instructions. Fluorescence was measured with excitation at 560 nm and emission at 590 nm. Cell number was calculated from standard curves of fluorescence measurements from known numbers of cells. Triplicate cultures were performed on all experiments.
(§2) The effects of anti-IGF-1R antibodies/MEK inhibitor combination treatment on viability of different types of tumor cells were investigated using PrestoBlue cell viability assay (Invitrogen, CA, USA) according to manufacturer's instructions. (Table 3).
(§3) Cells were incubated in serum free medium for 12 h followed by pretreatment for 60 min without or with 0.5, 1, 3 or 5 μM of the ERK inhibitor U0126, and then treated without or with 100 ng/ml anti-IGF-1R antibodies (Figitumumab or αIR-3 (Calbiochem, US). Cells were incubated in 96 well tissue culture plates for 48 hours and cell viability was measured by PrestoBlue cell viability assay. Fluorescence was measured with excitation at 560 nm and emission at 590 nm. Cell number was calculated from standard curves of fluorescence measurements from known numbers of cells. Triplicate cultures were performed on all experiments. The inhibition induced by anti-IGF-1R antibodies treated cells was calculated as percentage of untreated cells.

Assay [2] has as its system HEPG2. Kind of assay: PrestoBlue cell viability, anti-IGF-1R antibody with U0126, HEPG2 (hepatic carcinoma). The conditions noted are these: 48 h. Here is the method:
as §1, §2, §3

The subject of assay [3] is MIAPaCa2. Kind of assay: PrestoBlue cell viability, anti-IGF-1R antibody with U0126, MIAPaCa2 (pancreatic cancer). The conditions noted are these: 48 h. Here is the method:
as §1, §2, §3

For assay [4], the target named is T1, IGF-1R (Homo sapiens, UniProt P08069).
T1 construct: all the ES cell lines tested expressed IGF-1R; endogenous in cells; host or cells: Ewing's sarcoma cell lines SKES, RDES, CADO, A673, SKNMC
Description: IGF-1R ubiquitination in ES cells (immunoprecipitation, WB). The conditions noted are these: 10 min stimulation, serum starved ES cells; all investigated cell lines. Here is the method: FIG. 2A-FIG. 2D. Mechanism of CP induced IGF-1R downregulation: β-arrestin1 recruitment and receptor ubiquitination. (A) Cells incubated in serum free medium for 12 h were treated with 0, 0.1 or 1 μg/ml CP for 24 h. Protein lysates were analyzed by WB for IGF-1R and GAPDH as a loading control. […] Protein lysates were analyzed by WB for IGF-1R and GAPDH as a loading control. Signals were quantified by densitometry, normalized to GAPDH and expressed as a percentage of the IGF-1R at 0 h. Data correspond to the mean±SEM from three independent experiments. […] IGF-1R was immunoprecipitated from lysates and analyzed by WB (IB) for ubiquitination (Ub) and IGF-1R as a loading control. Molecular weight markers in KDa are indicated to the left of the panels. (D) β-Arrestin1 (β-arr1) was immunoprecipitated from cell lysates prepared as for (C). Immunoprecipitated proteins were analyzed by WB for IGF-1R. The whole lysates were analyzed by WB for GAPDH as a loading control.
Cells were lysed with 500 μl lysis buffer (110 mM KOAc, 0.5% (v/v) Triton X-100, 100 mM NaCl, protease inhibitor cocktail tablet (Roche), buffering salts pH 7.4). 500 μg of protein was incubated with Dynabeads protein G (10 μl) (Invitrogen, CA, USA) and 1 μg antibody overnight at 4° C. on a rotator platform. […]
These trends were confirmed by densitometric quantification of multiple experiments (FIG. 2B, graphs). […]

Assay [5] concerns IGF-1R, AKT and ERK phosphorylation. Description: IGF-1R signaling activation in ES cell lines (WB for P-IGF-1R, P-AKT, P-ERK).
[6] abbreviates: U0126 0 μM (60 min pretreatment).
Where [7] appears, read: U0126 0.5 μM (60 min pretreatment).
[8] abbreviates: U0126 1 μM (60 min pretreatment).
[9] abbreviates: U0126 3 μM (60 min pretreatment).
Where [10] appears, read: U0126 5 μM (60 min pretreatment).
Setting [11] is: serum starved ES cells, stimulation up to 60 min.

B1: CP-751,871: anti-IGF-1R antibody figitumumab (Pfizer), IGF-1R antagonist (antibody, chains of the INN, looked up)
heavy: EVQLLESGGGLVQPGGSLRLSCTASGFTFSSYAMNWVRQAPGKGLEWVSAISGSGGTTFYADSVKGRFTISRDNSRTTLYLQMNSLRAEDTAVYYCAKDLGWSDSYYYYYGMDVWGQGTTVTVSSASTKGPSVFPLAPCSRSTSESTAALGCLVKDYFPEPVTVSWNSGALTSGVHTFPAVLQSSGLYSLSSVVTVPSSNFGTQTYTCNVDHKPSNTKVDKTVERKCCVECPPCPAPPVAGPSVFLFPPKPKDTLMISRTPEVTCVVVDVSHEDPEVQFNWYVDGVEVHNAKTKPREEQFNSTFRVVSVLTVVHQDWLNGKEYKCKVSNKGLPAPIEKTISKTKGQPREPQVYTLPPSREEMTKNQVSLTCLVKGFYPSDIAVEWESNGQPENNYKTTPPMLDSDGSFFLYSKLTVDKSRWQQGNVFSCSVMHEALHNHYTQKSLSLSPG
light: DIQMTQFPSSLSASVGDRVTITCRASQGIRNDLGWYQQKPGKAPKRLIYAASRLHRGVPSRFSGSGSGTEFTLTISSLQPEDFATYYCLQHNSYPCSFGQGTKLEIKRTVAAPSVFIFPPSDEQLKSGTASVVCLLNNFYPREAKVQWKVDNALQSGNSQESVTEQDSKDSTYSLSSTLTLSKADYEKHKVYACEVTHQGLSSPVTKSFNRGEC
As for B1, the “Percentage inhibition of antibody treated cells (100 ng/ml)” value (“Percentage inhibition” for short) was determined as 5% in assay [1] (setting [6]); 9% in assay [1] (setting [7]); 12% in assay [1] (setting [8]); 12% in assay [1] (setting [9]); 15% in assay [1] (setting [10]); 7% in assay [2] (setting [6]). For the same molecule, the “Percentage inhibition” value came out at 11% in assay [2] (setting [7]); 22% in assay [2] (setting [8]); 27% in assay [2] (setting [9]); 37% in assay [2] (setting [10]); 27% in assay [3] (setting [6]); 35% in assay [3] (setting [7]). For the same molecule, the “Percentage inhibition” value in assay [3] (setting [8]) was found to be 55%; in assay [3] (setting [9]), 78%; in assay [3] (setting [10]) it was 89%. Also, in assay [4], the “IGF-1R ubiquitination compared with IGF-1” value is on record as “more potent in generating receptor ubiquitination”. Also, the AKT phosphorylation result in assay [5] (setting [11]) is “undetectable”. In assay [5] (setting [11]), the IGF-1R phosphorylation result is “undetectable”. The ERK phosphorylation entry in assay [5] (serum starved cells, up to 60 min, all ES cell lines) is on record as “clear ERK phosphorylation signals”.
